Source: patent US20180265582A1

Target: human PD-1 (programmed cell death 1) (human) (UniProt Q15116)
Assay: column Affinity (nM); by the footnote of Tables 3 and 11: FACS staining of endogenous cell surface PD-1 on activated CD4 T cells [row BMS-5C4]

Chain of UniProt Q15116 (Q15116 25-288 limits assumed): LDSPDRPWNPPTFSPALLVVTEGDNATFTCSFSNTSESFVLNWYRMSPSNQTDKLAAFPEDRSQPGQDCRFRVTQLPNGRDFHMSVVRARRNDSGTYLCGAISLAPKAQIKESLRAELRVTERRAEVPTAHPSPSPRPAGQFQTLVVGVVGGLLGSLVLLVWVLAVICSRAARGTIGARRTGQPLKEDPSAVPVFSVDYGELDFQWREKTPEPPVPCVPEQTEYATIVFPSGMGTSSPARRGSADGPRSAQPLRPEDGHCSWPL

Substance: BMS-5C4 (antibody)
- Affinity: 0.6 nM
